These results are taken from paper PMC7763487 (2020).

Sequences and labels used below:
B1: (Flag)3-TET1 full-length Δ1+2 (Δ109–120 + Δ1132–1202) [mouse] / (HA)3-NANOG [mouse] (parent complex)
chain 1: MSRSRPAKPSKSVKTKLQKKKDIQMKTKTSKQAVRHGASAKAVNPGKPKQLIKRRDGKKETEDKTPTPAPSFLTRAGAARMNRDRNQVLFQNPDSLTCNGFTMALRRTTPKPKKVPPSKKQCTHNIQDEPGVKHSENDSVPSQHATVSPGTENGEQNRCLVEGESQEITQSCPVFEERIEDTQSCISASGNLEAEISWPLEGTHCEELLSHQTSDNECTSPQECAPLPQRSTSEVTSQKNTSNQLADLSSQVESIKLSDPSPNPTGSDHNGFPDSSFRIVPELDLKTCMPLDESVYPTALIRFILAGSQPDVFDTKPQEKTLITTPEQVGSHPNQVLDATSVLGQAFSTLPLQWGFSGANLVQVEALGKGSDSPEDLGAITMLNQQETVAMDMDRNATPDLPIFLPKPPNTVATYSSPLLGPEPHSSTSCGLEVQGATPILTLDSGHTPQLPPNPESSSVPLVIAANGTRAEKQFGTSLFPAVPQGFTVAAENEVQHAPLDLTQGSQAAPSKLEGEISRVSITGSADVKATAMSMPVTQASTSSPPCNSTPPMVERRKRKACGVCEPCQQKANCGECTYCKNRKNSHQICKKRKCEVLKKKPEATSQAQVTKENKRPQREKKPKVLKTDFNNKPVNGPKSESMDCSRRGHGEEEQRLDLITHPLENVRKNAGGMTGIEVEKWAPNKKSHLAEGQVKGSCDANLTGVENPQPSEDDKQQTNPSPTFAQTIRNGMKNVHCLPTDTHLPLNKLNHEEFSKALGNNSSKLLTDPSNCKDAMSVTTSGGECDHLKGPRNTLLFQKPGLNCRSGAEPTIFNNHPNTHSAGSRPHPPEKVPNKEPKDGSPVQPSLLSLMKDRRLTLEQVVAIEALTQLSEAPSESSSPSKPEKDEEAHQKTASLLNSCKAILHSVRKDLQDPNVQGKGLHHDTVVFNGQNRTFKSPDSFATNQALIKSQGYPSSPTAEKKGAAGGRAPFDGFENSHPLPIESHNLENCSQVLSCDQNLSSHDPSCQDAPYSQIEEDVAAQLTQLASTINHINAEVRNAESTPESLVAKNTKQKHSQEKRMVHQKPPSSTQTKPSVPSAKPKKAQKKARATPHANKRKKKPPARSSQENDQKKQEQLAKEKVKVEPSDSLPTCQFKTESGGQTFAEPADNSQGQPMVSVNQEAHPLPQSPPSNQCANIMAGAAQTQFHLGAQENLVHQIPPPTLPGTSPDTLLPDPASILRKGKVLHFDGITVVTEKREAQTSSNGPLGPTTDSAQSEFKESIMDLLSKPAKNLIAGLKEQEAAPCDCDGGTQKEKGPYYTHLGAGPSVAAVRELMETRFGQKGKAIRIEKIVFTGKEGKSSQGCPVAKWVIRRSGPEEKLICLVRERVDHHCSTAVIVVLILLWEGIPRLMADRLYKELTENLRSYSGHPTDRRCTLNKKRTCTCQGIDPKTCGASFSFGCSWSMYFNGCKFGRSENPRKFRLAPNYPLHNYYKRITGMSSEGSDVKTGWIIPDRKTLISREEKQLEKNLQELATVLAPLYKQMAPVAYQNQVEYEEVAGDCRLGNEEGRPFSGVTCCMDFCAHSHKDIHNMHNGSTVVCTLIRADGRDTNCPEDEQLHVLPLYRLADTDEFGSVEGMKAKIKSGAIQVNGPTRKRRLRFTEPVPRCGKRAKMKQNHNKSGSHNTKSFSSASSTSHLVKDESTDFCPLQASSAETSTCTYSKTASGGFAETSSILHCTMPSGAHSGANAAAGECTGTVQPAEVAAHPHQSLPTADSPVHAEPLTSPSEQLTSNQSNQQLPLLSNSQKLASCQVEDERHPEADEPQHPEDDNLPQLDEFWSDSEEIYADPSFGGVAIAPIHGSVLIECARKELHATTSLRSPKRGVPFRVSLVFYQHKSLNKPNHGFDINKIKCKCKKVTKKKPADRECPDVSPEANLSHQIPSRVASTLTRDNVVTVSPYSLTHVAGPYNRWV
chain 2: MSVGLPGPHSLPSSEEASNSGNASSMPAVFHPENYSCLQGSATEMLCTEAASPRPSSEDLPLQGSPDSSTSPKQKLSSPEADKGPEEEENKVLARKQKMRTVFSQAQLCALKDRFQKQKYLSLQQMQELSSILNLSYKQVKTWFQNQRMKCKRWQKNQWLKTSNGLIQKGSAPVEYPSIHCSYPQGYLVNASGSLSMWGSQTWTNPTWSSQTWTNPTWNNQTWTNPTWSSQAWTAQSWNGQPWNAAPLHNFGEDFLQPYVQLQQNFSASDLEVNLEATRESHAHFSTPQALELFLNYSVTPPGEI

Variants of B1 are the subject of the experiment. Put plainly: co-immunoprecipitation (anti-Flag IP), quantified immunoblot; E14/T ESCs; parent: 0.29; read off a plot.
As for chain 1 F1440A, chain 1 F1442A, chain 1 W1446A, chain 1 Y1449A, chain 1 F1450A, chain 1 F1455A, chain 1 F1464A, the screen value was ~0.065.
